Measured values from the supplement of paper PMC7125110.
± gives the standard error. This sample holds only a part of the variants without activity.

B1: glmS ribozyme (parent)
chain: AUAAAAGCGCCAGAACUACAGAAAUGUAGUUGACGAGGAGGAGGUUUAUCGAAUUUUCGGCGGAUGCCUCCAAA

Assays:
Settings in all cases: with glucosamine-6-phosphate
[1] = variants of: B1; experiment: self-cleavage kobs at 40 uM GlcN6P; higher = faster cleavage; RNA array
Method in brief: (§1)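 Sequenced MiSeq chips were the platform: E. coli RNA polymerase transcribed barcoded ribozyme variants on them in situ, and a hybridised Cy3 probe tracked these at 37 °C. After glucosamine-6-phosphate (40 μM to 10 mM) in HEPES/KCl/Mg(OAc)2 buffer was flowed in, tiles were imaged over ~14 h. Signals normalised to baseline and to non-cleaving reference variants were reduced to per-tile medians and fit to one- or two-exponential decays to obtain kobs. kcat and KM were derived through weighted Michaelis–Menten fits across concentrations.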

[2] = variants of: B1; experiment: self-cleavage kobs at 160 uM GlcN6P; higher = faster cleavage; RNA array
Method in brief: as §1

[3] = variants of: B1; experiment: self-cleavage kobs at 640 uM GlcN6P; higher = faster cleavage; RNA array
Method in brief: as §1

[4] = variants of: B1; experiment: self-cleavage kobs at 2500 uM GlcN6P; higher = faster cleavage; RNA array
Method in brief: as §1

[5] = variants of: B1; experiment: self-cleavage kobs at 10000 uM GlcN6P; higher = faster cleavage; RNA array
Method in brief: as §1

| Variant | self-cleavage kobs at 40 uM GlcN6P [1] | self-cleavage kobs at 160 uM GlcN6P [2] | self-cleavage kobs at 640 uM GlcN6P [3] | self-cleavage kobs at 2500 uM GlcN6P [4] | self-cleavage kobs at 10000 uM GlcN6P [5] |
| --- | --- | --- | --- | --- | --- |
| A12C U54A | 0.000707 ± 7e-05 s⁻¹ | 0.00199 ± 0.00034 s⁻¹ | 0.0159 ± 0.0035 s⁻¹ | 0.00841 ± 0.0015 s⁻¹ | 0.0301 ± 0.0049 s⁻¹ |
| U56G G62U C68G | < 1e-05 s⁻¹ | – | – | – | < 1e-05 s⁻¹ |
| A39G A53C | 0.000254 ± 5.4e-05 s⁻¹ | 0.000658 ± 0.00016 s⁻¹ | 0.00303 ± 0.00075 s⁻¹ | 0.0068 ± 0.0017 s⁻¹ | 0.0216 ± 0.0083 s⁻¹ |
| A15G G59C | < 1e-05 s⁻¹ | < 1e-05 s⁻¹ | < 1e-05 s⁻¹ | – | – |
| C10U U65C | < 1e-05 s⁻¹ | – | – | – | < 1e-05 s⁻¹ |
| A1G | 0.00124 ± 0.00034 s⁻¹ | – | – | – | 0.0405 ± 0.014 s⁻¹ |
| C11U C50G U65A C68A | 8.61e-05 ± 2.8e-05 s⁻¹ | – | – | – | – |
| C11G G13U | < 1e-05 s⁻¹ | < 1e-05 s⁻¹ | < 1e-05 s⁻¹ | < 1e-05 s⁻¹ | < 1e-05 s⁻¹ |
| G9U A39U C68U | < 1e-05 s⁻¹ | – | – | – | – |
| G43A G44U U55C | < 1e-05 s⁻¹ | – | – | – | < 1e-05 s⁻¹ |
| A6U C16A C34A G38C | < 1e-05 s⁻¹ | – | < 1e-05 s⁻¹ | – | < 1e-05 s⁻¹ |
| G7U C11G | < 1e-05 s⁻¹ | < 1e-05 s⁻¹ | < 1e-05 s⁻¹ | < 1e-05 s⁻¹ | < 1e-05 s⁻¹ |
| U56G G59A C68A | < 1e-05 s⁻¹ | – | < 1e-05 s⁻¹ | – | < 1e-05 s⁻¹ |
| C8U G29A | < 1e-05 s⁻¹ | – | – | < 1e-05 s⁻¹ | – |
| C8U G29C | < 1e-05 s⁻¹ | < 1e-05 s⁻¹ | < 1e-05 s⁻¹ | < 1e-05 s⁻¹ | < 1e-05 s⁻¹ |
| C10U U31C G66U | < 1e-05 s⁻¹ | < 1e-05 s⁻¹ | – | – | < 1e-05 s⁻¹ |
| G41A U69C | < 1e-05 s⁻¹ | < 1e-05 s⁻¹ | – | – | – |
| G38U A52C | < 1e-05 s⁻¹ | – | < 1e-05 s⁻¹ | – | < 1e-05 s⁻¹ |
| G13C G51C G63C | < 1e-05 s⁻¹ | – | – | – | – |
| G7U U55G | < 1e-05 s⁻¹ | < 1e-05 s⁻¹ | – | – | < 1e-05 s⁻¹ |
| A33G U65C C71A | < 1e-05 s⁻¹ | – | < 1e-05 s⁻¹ | – | – |
| G43A U69G | < 1e-05 s⁻¹ | – | < 1e-05 s⁻¹ | – | < 1e-05 s⁻¹ |
| C11A G40U G41U G60C U65C | < 1e-05 s⁻¹ | – | – | – | < 1e-05 s⁻¹ |
| G9U A12G G32U G43U U45A | < 1e-05 s⁻¹ | – | – | – | – |

| Variant | self-cleavage kobs at 40 uM GlcN6P [1] | self-cleavage kobs at 160 uM GlcN6P [2] | self-cleavage kobs at 640 uM GlcN6P [3] | self-cleavage kobs at 2500 uM GlcN6P [4] | self-cleavage kobs at 10000 uM GlcN6P [5] |
| --- | --- | --- | --- | --- | --- |
| U49C C70U | < 1e-05 s⁻¹ | – | < 1e-05 s⁻¹ | – | < 1e-05 s⁻¹ |
| A12U A52G | 8.7e-05 ± 1.3e-05 s⁻¹ | 0.000171 ± 6.4e-05 s⁻¹ | 0.000717 ± 0.00014 s⁻¹ | 0.00267 ± 0.00049 s⁻¹ | 0.00785 ± 0.0012 s⁻¹ |
| C19A G51A | < 1e-05 s⁻¹ | – | – | – | < 1e-05 s⁻¹ |
| G62A A64U | < 1e-05 s⁻¹ | – | < 1e-05 s⁻¹ | – | < 1e-05 s⁻¹ |
| C10G C50G G63A C71U | 6.86e-05 ± 1.9e-05 s⁻¹ | – | – | – | 5.34e-05 ± 1.7e-05 s⁻¹ |
| A6U G41A A42U | < 1e-05 s⁻¹ | – | – | – | < 1e-05 s⁻¹ |
| G13A C58U C67G | < 1e-05 s⁻¹ | – | – | – | – |
| G9C U31G U54C | < 1e-05 s⁻¹ | – | – | – | – |
| U31G G60C C68A | < 1e-05 s⁻¹ | – | – | – | – |
| G29A U49C U69A | < 1e-05 s⁻¹ | – | – | – | < 1e-05 s⁻¹ |
| C11G A52C | < 1e-05 s⁻¹ | < 1e-05 s⁻¹ | < 1e-05 s⁻¹ | < 1e-05 s⁻¹ | < 1e-05 s⁻¹ |
| A6G A53C U56G | < 1e-05 s⁻¹ | – | – | – | – |
| G7U C10U G13C A52G | < 1e-05 s⁻¹ | – | – | – | – |
| C10G G32C U57A | < 1e-05 s⁻¹ | – | – | – | – |
| A6G C58G C61U | < 1e-05 s⁻¹ | – | – | – | < 1e-05 s⁻¹ |
| C10U U45G G51U A64U | < 1e-05 s⁻¹ | – | – | – | < 1e-05 s⁻¹ |
| A33U G38U G40U | < 1e-05 s⁻¹ | – | – | – | – |
| A39U G51U C67U | < 1e-05 s⁻¹ | < 1e-05 s⁻¹ | < 1e-05 s⁻¹ | < 1e-05 s⁻¹ | < 1e-05 s⁻¹ |
| U49A G60C | < 1e-05 s⁻¹ | – | < 1e-05 s⁻¹ | < 1e-05 s⁻¹ | < 1e-05 s⁻¹ |
| C34U G38U | < 1e-05 s⁻¹ | < 1e-05 s⁻¹ | < 1e-05 s⁻¹ | – | < 1e-05 s⁻¹ |
| G41A C67G C70U | 4.65e-05 ± 2e-05 s⁻¹ | 0.000107 ± 3.4e-05 s⁻¹ | 0.000188 ± 5.7e-05 s⁻¹ | 0.000826 ± 0.00023 s⁻¹ | 0.00166 ± 0.00038 s⁻¹ |
| A14G G40A | 0.000801 ± 0.00011 s⁻¹ | 0.00119 ± 0.00039 s⁻¹ | 0.0045 ± 0.00098 s⁻¹ | 0.00484 ± 0.0011 s⁻¹ | 0.0666 ± 0.029 s⁻¹ |
| G9U G13C | < 1e-05 s⁻¹ | < 1e-05 s⁻¹ | < 1e-05 s⁻¹ | – | < 1e-05 s⁻¹ |
